Data published in the array DNA melting data of Ke et al..

Experiment: melting temperature; UV melt of duplexes

| Substance | Tm (sodium 0.07 M, strand 2 µM) | Tm (sodium 0.12 M, strand 2 µM) | Tm (sodium 0.22 M, strand 2 µM) | Tm (sodium 0.62 M, strand 2 µM) | Tm (sodium 1.02 M, strand 2 µM) | also measured |
| --- | --- | --- | --- | --- | --- | --- |
| ATATATAGCTATATAT+ATATATAGCTATATAT ((((((((((((((((+)))))))))))))))) |  |  |  |  |  | Tm (sodium 0.12 M, strand 5 µM): 39.1 °C |
| AGAAGGGAGAGAAAAAGAAA+TTTCTTTTTCTCTCCCTTCT ((((((((((((((((((((+)))))))))))))))))))) |  |  |  |  |  | Tm (sodium 1 M, strand 2 µM): 61.9 °C |
| AAAAAAAGCTTTTTTT+AAAAAAAGCTTTTTTT ((((((((((((((((+)))))))))))))))) |  |  |  |  |  | Tm (sodium 0.12 M, strand 5 µM): 44 °C |
| AACGCGCGTAGAGTAATTATAA+TTATAATTACTCTACGCGCGTT ((((((((((((((((((((((+)))))))))))))))))))))) |  |  |  |  |  | Tm (sodium 0.12 M, strand 6 µM): 65 °C |
| ATTGATATCCTTTTCTATTCATCTTTCATT+AATGAAAGATGAATAGAAAAGGATATCAAT ((((((((((((((((((((((((((((((+)))))))))))))))))))))))))))))) | 53.5 °C | 58.3 °C | 62.3 °C | 68.6 °C | 70.4 °C |  |
| AGCAAGTCGAGCAGGGCCTACGTTT+AAACGTAGGCCCTGCTCGACTTGCT (((((((((((((((((((((((((+))))))))))))))))))))))))) | 68.3 °C | 72.6 °C | 76.3 °C | 80 °C | 81.5 °C |  |
| CGCCGCTGCCGACTGGAGGAGCGCGGGACG+CGTCCCGCGCTCCTCCAGTCGGCAGCGGCG ((((((((((((((((((((((((((((((+)))))))))))))))))))))))))))))) | 77.8 °C | 81.6 °C | 84.6 °C | 87.7 °C | 88.6 °C |  |
| TATTGAGAACAAGTGTCCGATTAGCAGAAA+TTTCTGCTAATCGGACACTTGTTCTCAATA ((((((((((((((((((((((((((((((+)))))))))))))))))))))))))))))) | 61.3 °C | 65.4 °C | 69.6 °C | 74.8 °C | 76.4 °C |  |
| AAAAAAAAGAATTCTTTTTTTT+AAAAAAAAGAATTCTTTTTTTT ((((((((((((((((((((((+)))))))))))))))))))))) |  |  |  |  |  | Tm (sodium 0.12 M, strand 6 µM): 49.9 °C |
| CGCGCCACGTGTGATCTACAGCCGTTCGGC+GCCGAACGGCTGTAGATCACACGTGGCGCG ((((((((((((((((((((((((((((((+)))))))))))))))))))))))))))))) | 72.7 °C | 76.3 °C | 79.5 °C | 83.4 °C | 84.5 °C |  |
| ACTGATTAGGATCCATATGTCA+TGACATATGGATCCTAATCAGT ((((((((((((((((((((((+)))))))))))))))))))))) |  |  |  |  |  | Tm (sodium 0.12 M, strand 5 µM): 58.3 °C |
| AATATCTCTCATGCGCCAAGCTACA+TGTAGCTTGGCGCATGAGAGATATT (((((((((((((((((((((((((+))))))))))))))))))))))))) | 62.1 °C | 65.7 °C | 70.3 °C | 75.1 °C | 76.5 °C |  |
| GCTAAAAAGAGAGAGAGATCG+CGATCTCTCTCTCTTTTTAGC (((((((((((((((((((((+))))))))))))))))))))) |  |  |  |  |  | Tm (sodium 1 M, strand 3 µM): 69 °C |
